Measured values reported in patent US20250051407A1, “De novo designed sequence-specific DNA binding proteins” (University of Washington, priority 2023, published 2025).

Experiments:
13 unique dsDNA targets = assay: All-by-all yeast surface display screen of DBP design hits; type: binding
Outline: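 EBY100 yeast displaying designs were induced 16–24 h at 30°C, then labelled with biotinylated dsDNA either with avidity (SAPE premixed at one-quarter of target concentration) or without (target, then SAPE/FITC). Competition ran without avidity at 1 μM biotinylated duplex plus 8 μM unlabelled competitor. Flow cytometry read-out is the SAPE/FITC ratio over gated expressing cells.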

[1] = test system: synthetic promoter containing the designed DBP binding sites controlling YFP; assay: Transcriptional repression assay (NOT gate, YFP) in E. coli; type: cell-based, Escherichia coli; settings: IPTG induction (1 mM), flow cytometry
Description: We next tested the ability of the designed DBPs to function in cells to regulate transcription. We constructed candidate NOT gates (38) to assay transcriptional repression in Escherichia coli, where the input is a designed DBP under control of the IPTG-inducible PTac promoter and the output is yellow fluorescent protein (YFP) expression driven by a promoter incorporating each DBP's DNA binding site. […] To increase avidity and bulk, we fused the DBPs to the homodimerization domain of the TetR protein (39), using RFdiffusion (40) and ProteinMPNN sequence design to generate rigid linkers that orient the DBP domain of each dimer unit on a DNA target containing two palindromic binding sites. For DBPs 48, 69, and 57, we selected 96 TetR fusions for experimental characterization in the NOT gate circuit. Upon initial screening, we observed modest repression for several designs and selected two for further validation (one incorporating DBP48, the other DBP57) (FIG. 8). […]

B1: DBP48: designed DNA-binding protein, SEQ ID NO: 22, DNA target D (protein)
chain: MTPEEIAEAKRIGKEVKERRKELGLTQRELAEKLGVSRSTVSDIENGRRLPSEELLKKIKEILGV
Number of the 13 tested DNA target sequences preferentially bound (13 unique dsDNA targets; 1 μM dsDNA with avidity, including designed target sequence): less than 3
Binding specificity versus design models (13 unique dsDNA targets; all-by-all screen with Rosetta-predicted motifs): bound with specificity closely consistent with the design models
Binding to initial design target (13 unique dsDNA targets; yeast surface display, 1 μM dsDNA with avidity): bound weakly
Binding to alternate target sequence (13 unique dsDNA targets; yeast surface display, 1 μM dsDNA with avidity, alternate target H (DBP90), D (DBP48), C (DBP57)): strongly
Fold repression of YFP by single DBP domains and tandem linked DBP domains [1]: not observed
